B1: 70nt poly(dT) (ssDNA)
DNA: TTTTTTTTTTTTTTTTTTTTTTTTTTTTTTTTTTTTTTTTTTTTTTTTTTTTTTTTTTTTTTTTTTTTTT

Assays:
[1] = biological target: T1, E. coli single-stranded DNA binding protein (SSB) (Escherichia coli, UniProt P0AGE0 1-178); assay: competition
[2] = biological target: T1, E. coli single-stranded DNA binding …; assay: single-molecule free solution hydrodynamic separation
[3] = biological target: T1, E. coli single-stranded DNA binding …; assay: as above; remark: listed apart in the source
[4] = biological target: T1, E. coli single-stranded DNA binding …; assay: competition; remark: listed apart in the source

T1 sequence (P0AGE0 whole entry): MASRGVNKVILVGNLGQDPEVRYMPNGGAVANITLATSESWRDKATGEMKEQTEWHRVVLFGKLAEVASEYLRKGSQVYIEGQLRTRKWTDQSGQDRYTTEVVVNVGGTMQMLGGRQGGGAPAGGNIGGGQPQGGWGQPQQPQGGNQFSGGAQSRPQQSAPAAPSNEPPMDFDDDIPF

Binder	Kd [1]	Kd [2]	Kd [3]	Kd [4]
TTTTTTTTTTTTTTTTTTTTTTTTTTTTTTTTTTT (ssDNA) [35nt poly(dT)]	11.7 ± 0.6 nM	10 ± 0.5 nM		
B1			21.7 ± 0.2 nM	22.1 ± 1.5 nM
